Source: US20160200814A1, “IMMUNORECEPTOR MODULATION FOR TREATING CANCER AND VIRAL INFECTIONS” (THE COUNCIL OF THE QUEENSLAND INSTITUTE OF MEDICAL RESEARCH, priority 2013, published 2016)

Biological target: T1, CD155 at the cell surface of B16F10 (Mus musculus, UniProt F6V4I7)
T1 construct: at the cell surface of B16F10 cells; endogenous in cells; host or cells: B16F10 melanoma cells
T1 sequence (F6V4I7 29-408): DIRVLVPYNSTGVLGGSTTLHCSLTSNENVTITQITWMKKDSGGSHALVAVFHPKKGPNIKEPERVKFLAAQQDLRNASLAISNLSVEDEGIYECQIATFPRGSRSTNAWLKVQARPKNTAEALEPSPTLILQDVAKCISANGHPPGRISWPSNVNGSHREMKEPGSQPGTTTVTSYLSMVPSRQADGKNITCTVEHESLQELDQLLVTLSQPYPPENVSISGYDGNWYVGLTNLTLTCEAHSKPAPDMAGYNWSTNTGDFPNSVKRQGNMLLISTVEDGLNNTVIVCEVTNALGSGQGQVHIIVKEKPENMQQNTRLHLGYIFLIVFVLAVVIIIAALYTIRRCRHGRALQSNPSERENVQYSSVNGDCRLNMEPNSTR
Experiment: Binding of DNAM-1-Fc (AF-647) at the cell surface of B16F10 cells, flow cytometry
Conditions: FIG. 3c; DNAM-1-Fc AF-647 0.5-20 μg/ml; competitor 50 μg/ml; versus control Ig
Description: FIG. 3: CD96 limits NK cell-dependent tumor immunosurveillance. a, b. CD96 and DNAM-1 have an opposite role in the control of B16F10 metastasis. a. 2×10^5 B16F10 cells were intravenously injected into WT, CD96^−/−, DNAM-1^−/− and DNAM-1^−/− CD96^−/− mice and metastatic burden was quantified in the lungs after 14 days. Representative experiment out of 3. b. Pictures showing the lung of WT and CD96^−/− mice two weeks after the injection of 2×10^5 and 5×10^5 B16F10 cells. Representative experiment out of two. c. […] The binding of DNAM-1-Fc labeled with AF-647 (0.5-20 μg/ml) at the cell surface of B16F10 cells was analyzed in the presence of 50 μg/ml of control Ig, recombinant CD96 or TIGIT-Fc. The FACS histograms and the mean±SD of triplicate wells from one representative experiment out of 3 are shown. d. A 4 hr^51 Cr release assay was performed between B16F10 cells and IL-2-activated NK cells from WT, DNAM-1^−/− and CD96^−/− mice at the indicated effector target ratios. Solid circles represent WT NK cells, open circles represent CD96^−/− NK cells and solid squares represents DNAM-1^−/− NK cells. e-h. CD96 and DNAM-1 have an opposite role in the immunosurveillance of MCA induced fibrosarcoma mediated by NK cells. e-h Groups of 15-30 male, WT, DNAM-1^−/− and CD96^−/− and DNAM-1^−/− CD96^−/− mice were injected with MCA (100 μg/mouse). […]

B1: recombinant CD96: recombinant CD96 protein used at 50 μg/ml as competitor of DNAM-1-Fc binding (protein, UniProt P40200 22-585, looked up)
T-cell surface protein tactile: VWEKTVNTEENVYATLGSDVNLTCQTQTVGFFVQMQWSKVTNKIDLIAVYHPQYGFYCAYGRPCESLVTFTETPENGSKWTLHLRNMSCSVSGRYECMLVLYPEGIQTKIYNLLIQTHVTADEWNSNHTIEIEINQTLEIPCFQNSSSKISSEFTYAWSVENSSTDSWVLLSKGIKEDNGTQETLISQNHLISNSTLLKDRVKLGTDYRLHLSPVQIFDDGRKFSCHIRVGPNKILRSSTTVKVFAKPEIPVIVENNSTDVLVERRFTCLLKNVFPKANITWFIDGSFLHDEKEGIYITNEERKGKDGFLELKSVLTRVHSNKPAQSDNLTIWCMALSPVPGNKVWNISSEKITFLLGSEISSTDPPLSVTESTLDTQPSPASSVSPARYPATSSVTLVDVSALRPNTTPQPSNSSMTTRGFNYPWTSSGTDTKKSVSRIPSETYSSSPSGAGSTLHDNVFTSTARAFSEVPTTANGSTKTNHVHITGIVVNKPKDGMSWPVIVAALLFCCMILFGLGVRKWCQYQKEIMERPPPFKPPPPPIKYTCIQEPNESDLPYHEMETL
For B1, the “competition with DNAM-1-Fc binding to CD155” value was “compete with DNAM-1 for the binding of CD155 at the cell surface of B16F10”.
